These results are taken from patent US20190345207A1 (Pieris, published 2019).

As a reminder, the EC50 is the concentration giving half of the maximal effect. A high value points to a less potent agent.

For this experiment, the target named is T1, cynomolgus LAG-3 on CHO cells stably transfected with cyLAG-3 (CHO-cyLAG-3) (cynomolgus monkey).
T1 construct: whole, on cells; also called CHO::cynomolgus LAG-3
As to the kind of experiment: FACS on transfected CHO cells.

Method: To perform the experiment, LAG-3-positive and negative Flp-In CHO cells were incubated with lipocalin muteins, and bound mutein was labeled using fluorescently labeled anti-hTlc antibodies, and then the signal was detected using FACS analysis as described in this example.
5×10⁴ cells per well were pre-incubated for 1 h in ice-cold PBS containing 5% fetal calf serum (PBS-FCS). […] Cells were subsequently washed and analyzed using a intellicyt IQue Flow cytometer (Intellicyt). Fluorescent data generated by lipocalin mutein binding to LAG-3 expressing cells were analyzed by gating for LAG-3 expressing CHO cells and using Forecyt@ software and resulted geometric fluorescent mean were plotted and fitted using Graphpad software.

B1: benchmark anti-LAG-3 antibody (SEQ ID NOs: 5 and 6) (antibody, human IgG4 S228P, kappa, V domains shown)
VH: QVQLQQWGAGLLKPSETLSLTCAVYGGSFSDYYWNWIRQPPGKGLEWIGEINHRGSTNSNPSLKSRVTLSLDTSKNQFSLKLRSVTAADTAVYYCAFGYSDYEYNWFDPWGQGTLVTVSS
VL: EIVLTQSPATLSLSPGERATLSCRASQSISSYLAWYQQKPGQAPRLLIYDASNRATGIPARFSGSGSGTDFTLTISSLEPEDFAVYYCQQRSNWPLTFGQGTNLEIKR
notes: also called benchmark antibody
B1 returned an EC50 of 46.8 nM.
